Ends that are not written are not given here.

Data on one molecule can be found in patent US20100104603A1 (published 2010).

Assay [1] addresses T1, Staphylococcal superantigen-like protein 5 (SSL5) of S. aureus strain NTCT 8325, recombinant (Staphylococcus aureus strain NTCT 8325, UniProt A0A0H3K6Z6 31-234).
T1 sequence: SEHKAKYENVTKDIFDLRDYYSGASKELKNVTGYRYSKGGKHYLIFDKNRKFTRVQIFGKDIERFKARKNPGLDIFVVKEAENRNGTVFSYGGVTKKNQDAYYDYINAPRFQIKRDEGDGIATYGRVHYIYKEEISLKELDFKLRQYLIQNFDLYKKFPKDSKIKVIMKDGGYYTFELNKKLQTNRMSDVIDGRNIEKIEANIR

Another assay addresses T2, IL-8 (UniProt P10145 28-99).
T2 construct: also called biotin-labeled IL-8
T2 sequence: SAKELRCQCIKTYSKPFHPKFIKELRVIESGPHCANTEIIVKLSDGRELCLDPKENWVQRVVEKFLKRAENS
Briefly: ELISA: IL-8-coated wells, PSGL-1/Ig without SSL5. For orientation: ELISA stands for enzyme-linked immunosorbent assay.

B1: recombinant human PSGL-1-Fc construct (PSGL-1/Ig fusion protein) (Fc fusion)
chain: QATEYEYLDYDFLPETEPPEMLRNSTDTTPLTGPGTPESTTVEPAAR
modifications: ends and bridges not checked; also: fused to Ig Fc part
notes: also called rPSGL/Ig; not shown: Ig/Fc part
The term Kd denotes the free concentration of one partner at which half of the binding sites on the other are occupied at equilibrium, for simple one-to-one binding. As for B1, in assay [1], the Kd came out at 0.82 µM. For the same molecule, the binding result with IL-8 was “no binding (tested: 1 µg/ml)”.
